Reference: publication PMC5524880, “Mechanisms and Specificity of Phenazine Biosynthesis Protein PhzF” (Scientific Reports, 2017)

Columns and labels:
purified protein [1] = substrate: CCOC1C=CC=C(C(=O)O)C1N; test: purified protein; format: biochemical, Pseudomonas fluorescens; details: 50 mM sodium phosphate pH 7.5, 1% DMSO, 25 °C, 1000 nM PhzF, racemic substrate
purified protein [2] = substrate: N[C@H]1C(C(=O)O)=CC=C[C@@H]1O; test: purified protein; format: biochemical, Pseudomonas fluorescens; details: 50 mM sodium phosphate pH 7.5, 1% DMSO, 25 °C
[3] = 200 nM PhzF, labelled compound (deuterated at C3)

B1: PhzF (Pseudomonas fluorescens) (protein)
chain: MHNYVIIDAFASVPLEGNPVAVFFDADDLPPAQMQRIAREMNLSESTFVLKPRNGGDALIRIFTPVNELPFAGHPLLGTAIALGAHTDNHRLYLETQMGTIAFELERQNGSVIAASMDQPIPTWTALGRDAELLKALGISDSTFPIEIYHNGPRHVFVGLPSIDALSALHPDHRALSNFHDMAINCFAGAGRRWRSRMFSPAYGVVEDAATGSAAGPLAIHLARHGQIEFGQPVEILQGVEIGRPSLMFAKAEGRAEQLTRVEVSGNGVTFGRGTIVL
notes: N-terminal His6 tag, expressed in E. coli, homodimer
- Km (purified protein [1]): 1842 ± 355 µM
- kcat (purified protein [1]): 0.12 ± 0.02 s⁻¹
- Km (purified protein [2]; 40 nM PhzF dimer): 517 ± 57 µM
- kcat (purified protein [2]; 40 nM PhzF dimer): 3.23 ± 0.19 s⁻¹
- Km (purified protein [2]; [3]): 311 ± 14 µM
- kcat (purified protein [2]; [3]): 0.34 ± 0.01 s⁻¹
